Test results: paper PMC10268255 (Proceedings of the National Academy of Sciences of the …, 2023)

Columns and labels:
integrin αVβ6 ectodomain [1] = biological target: integrin αVβ6 ectodomain (UniProt P06756); assay: fluorescence polarisation
αVβ8 ectodomain = αVβ8 ectodomain (Homo sapiens, UniProt P06756+P26012); assay: Fluorescence polarization; assay type: binding; conditions: ratio of FP KDs, αVβ8 vs αVβ6
αVβ6 ectodomain = αVβ6 ectodomain (Homo sapiens, UniProt P06756+P18564); assay: Fluorescence polarization; assay type: binding; conditions: FP competition
integrin αVβ8 ectodomain = integrin αVβ8 ectodomain (UniProt P06756 31-992; P26012 43-684); assay: fluorescence polarisation
integrin αVβ6 ectodomain [2] = biological target: integrin αVβ6 ectodomain (UniProt P06756 31-992; P18564 22-709); assay: fluorescence polarisation

Molecule: human proTGF-β2 C24S, N140R, D5G (shaved) (natural protein)
- fold higher affinity than the TGF-β2 9-mer (integrin αVβ6 ectodomain [1]): 170 fold

Molecule: Ac-GTSTYTSGDQKTIKSTRKKNSGK-NH2 [23-mer]
- Fold lower affinity of αVβ8 compared to αVβ6 (αVβ8 ectodomain): 5,500 fold
- Fold higher affinity for αVβ6 than the TGF-β2 9-mer (αVβ6 ectodomain): 20 fold

Molecule: Ac-YTSGDQKTIKSTR-NH2 [13-mer]
- Fold lower affinity of αVβ8 compared to αVβ6 (αVβ8 ectodomain): 8,100 fold

B1: TGF-β2 13-mer peptide Y259TSGDQKTIKSTR271 (peptide)
peptide: Ac-YTSGDQKTIKSTR-NH2
- Kd (integrin αVβ8 ectodomain): 11.4 mM

B2: TGF-β2 13-mer peptide K265A (peptide, UniProt P61812 259-271, looked up)
peptide: Ac-YTSGDQATIKSTR-NH2
- fold increase in affinity over the wild-type 13-mer (integrin αVβ6 ectodomain [2]): 6.3 fold
